The record followed here is patent publication US20150368668A1 (RUTGERS THE STATE UNIVERSITY OF NEW JERSEY, published 2015).

Assay [1] addresses human CD81, cellular receptor on the cells infected with HCVcc (human) (UniProt P60033). Briefly: cell-based or functional assay.
Assay [2] has as its target T1, Human CD81-LEL (residues 112-202), protein-A tag cleaved by PreScission Protease (human, UniProt P60033 112-202).
T1 construct: range 112-202
T1 sequence: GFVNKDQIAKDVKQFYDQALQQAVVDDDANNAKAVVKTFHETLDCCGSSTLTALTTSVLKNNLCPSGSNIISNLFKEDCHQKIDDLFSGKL
Nature of the assay: ELISA, CD81-LEL coated, detection with 2A12 and anti-mouse-HRP.

For assay [3], the target named is T1, Human CD81-LEL (residues 112-202), …. Briefly: SAXS envelope of the complex.

Chain of human CD81, cellular receptor on the cells infected with HCVcc (human) (P60033 whole entry, the tested form may be a part): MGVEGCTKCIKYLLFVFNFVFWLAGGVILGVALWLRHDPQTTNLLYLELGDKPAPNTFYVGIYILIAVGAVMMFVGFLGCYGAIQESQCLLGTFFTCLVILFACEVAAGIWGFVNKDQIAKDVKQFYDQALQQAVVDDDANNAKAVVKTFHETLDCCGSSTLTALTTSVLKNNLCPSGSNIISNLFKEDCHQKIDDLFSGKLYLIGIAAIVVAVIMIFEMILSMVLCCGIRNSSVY

For the molecule “purified eE2 (J6 genotype 2a E2 ectodomain aa 384-664, released from the Fc tag by thrombin) (from UniProt P26660 385-664)”, in assay [1], the 50% blocking efficiency, HCVcc focus forming units fell in the range of 25 to 150 µg/mL.

With “purified eE2-C656S (J6 E2 ectodomain aa 384-664 with C656S, released from the Fc tag by thrombin) (from UniProt P26660 385-664)”, the 50% blocking efficiency, HCVcc focus forming units in assay [1] was 25 to 150 µg/mL.

B1: full-length E2 ectodomain eE2 (residues 384-656, genotype J6), produced with a C-terminal protein-A tag and released by PreScission Protease (other)
chain: RTHTVGGSAAQTTGRLTSLFDMGPRQKIQLVNTNGSWHINRTALNCNDSLHTGFIASLFYTHSFNSSGCPERMSACRSIEAFRVGWGALQYEDNVTNPEDMRPYCWHYPPRQCGVVSAKTVCGPVYCFTPSPVVVGTTDRLGAPTYTWGENETDVFLLNSTRPPLGSWFGCTWMNSSGYTKTCGAPPCRTRADFNASTDLLCPTDCFRKHPDTTYLKCGSGPWLTPRCLIDYPYRLWHYPCTVNYTIFKIRMYVGGVEHRLTAACNFTRGDRC
modifications: N-linked glycans from GnTI- HEK293T cells; whether deglycosylated in the ELISAs is not stated
notes: Monomeric; also called eE2 (384-656)
With B1, the binding result in assay [2] is “binds”.

B2: eE2(ΔHVR1) (residues 413-656, genotype J6) (other)
chain: LVNTNGSWHINRTALNCNDSLHTGFIASLFYTHSFNSSGCPERMSACRSIEAFRVGWGALQYEDNVTNPEDMRPYCWHYPPRQCGVVSAKTVCGPVYCFTPSPVVVGTTDRLGAPTYTWGENETDVFLLNSTRPPLGSWFGCTWMNSSGYTKTCGAPPCRTRADFNASTDLLCPTDCFRKHPDTTYLKCGSGPWLTPRCLIDYPYRLWHYPCTVNYTIFKIRMYVGGVEHRLTAACNFTRGDRC
modifications: glycosylated (SAXS sample)
notes: also called eE2(DHVR1); eE2 (DHVR1)
On to B2, for which the binding result in assay [3] is listed as “binds”.
